Measurements as given in patent US20220289866A1 (University of California, published 2022).
Positions count from the first letter of the chain named. Non-standard residues stand in square brackets, D forms with d. No end group written: not given here. *: point of attachment. ARS‑1620 (S-atropisomer) = O=C(CC*)N1CCN(c2ncnc3c(F)c(-c4c(O)cccc4F)c(Cl)cc23)CC1; Nle = CCCC[C@H](N)C(=O)O

T1: PolyG-1620 peptide (S-atropisomer) (not fully specified (N-terminus); printed as GGC(1620)GGGGGG-Nle)
T1 construct: Control peptide, not of natural origin
T1 peptide: GGC(ARS‑1620 (S-atropisomer))GGGGGG[Nle]

T2: AHR2-1620 peptide
T2 construct: Origin printed as 'off target'
T2 peptide: VVVEPQQQLC(ARS‑1620 (S-atropisomer))QK

B1: P2G5 Fab (Fab, V domains shown)
VH: QVQLLESGGGVVQPGRSLRLSCAASGFTFSSYAMHWVRQAPGKGLEWLASISYDGSNKFHADSVKGRFTISRDNSKSTLYLQMNSLRAEDTAVYYCVRERVPWDYDGMDVWGQGTTVTVSS
VL: QSVVTQPPSVSAAPGQKVTVSCSGSNSNIGDNYVSWYQLLPGTAPKLLIYDNNKRPSGILDRFSGSKSGTSATLDITGLQTGDEADYYCGTWDSSLLTVVFGGGTKLTVLG
notes: Fab from a human naive Fab-phage library; also called P1C1; P1C1(P2G5)
B2: P2F11 Fab (Fab, V domains shown)
VH: B1 VH with Q1D, L5V, S31N, L48V, S50L
VL: QSVLTQPPSASGTPGQRVTISCSGGNSNIKSNTVSWYRQLPGATPKLLIYKTSQRPSGVPDRFSGSKSDTSATLDIAGLQTGDEADYYCGTWDNSLSSVVFGGGTRVTVLG
notes: Fab from a human naive Fab-phage library
B3: P1H6 Fab (Fab, V domains shown)
VH: B1 VH with L5V
VL: B1 VL with V4L, N26S, D31N, L97I, T98N, L107V, G111S
notes: as for B2
B4: P2F10 Fab (Fab, V domains shown)
VH: EVQLVESGGGVVQPGRSLRLSCAASGFTFSNYAMHWVRQAPGKGLEWVALISYDGSITYYADSVKGRFTISRDNSKDTLYLQMNSLRPEDTTLYYCARERVPYDYYGMAVWGQGTTVTVSS
VL: QSVLTQPPSVSAAPGQKVTISCSGSASNIGSNHVSWYQHVPGTAPQLLIYDDKQRPSGIPDRFSGSKSGTSAALAITGLQTGDEADYYCATWDNSLASAFFGGGTKLTVLS
notes: as for B2
B5: P1A4 Fab (Fab, V domains shown)
VH: QVQLQESGGGLVQPGRSLRLSCAASGFTFSSYAMHWVRQAPGKGLEWVAVISYDGSNKYYADSVKGRFTISRDNSKNTLYLQMNSLRAEDTAVYYCARDYDWQYFDYWGQGTLVTVSS
VL: QSVVTQPPSVSAAPGQEVTISCSGSSSNIGNNYVSWYQHLPGTAPKLLIYDSDKRPSGIPDRFSGSKSGTSATLGVTGLQTGDEADYYCGTWDSSLSAVMFGGGTKLTVLG

Key:
[1] = molecular target: T1, PolyG-1620 peptide (S-atropisomer); test: BLI, biotinylated peptide
[2] = molecular target: T1, PolyG-1620 peptide (S-atropisomer); test: BLI; 'Affinity (nM)'
[3] = molecular target: T2, AHR2-1620 peptide; test: BLI; 'Affinity (nM)'

Row | Binder | Kd [1] [nM] | Kd [2] [nM] | Kd [3] [nM]
1 | B1 | 85.4 | – | –
2 | B2 | 21.7 | – | –
3 | B3 | 24.6 | – | –
4 | B4 | 14.1 | – | –
5 | B5 | 39 | 40 | 51
